B1: ADI-41312 (antibody, V domains shown)
VH: QVQLQESGPGLVKPSGTLSLTCAVSGGSISSSNWWNWVRQPPGKGLEWIGEIYHSGRTNYNPSLKSRVSISIDKFKSQFSLNLNSVTAADTAVYYCARDLPGTPYDIVPGYYPGLRRHDAFDIWGQGTMVTVSS
VL: not shown
B2: ADI-41316 (antibody, V domains shown)
VH: QVQLVQSGGGVVQPGRSLRLSCAASGFTFNNYGMHWVRQAPGKGLEWVAVLSFDGINKYYADSARGRFTISRDNSKNTLYLQMNSLRAEDTALYYCAKDRQEYSSGWTHDACDIWGQGTMVTVSS
VL: EIVMTQSPATLSVSPGERATLSCRASQNVNNNLAWYQQNPGQAPRLLIFGASTRATGIPARFSGSGSGTEFTLTISSLQSEDFAVYYCQQYNNWPRTFGQGTKLEIK
B3: ADI-41317 (antibody, V domains shown)
VH: EVQLVESGGGLVQPGGSLRLSCEASRFKFSTFWMAWVRQAPGKGLEWVANIKQDGSETYYLDSVKGRFTISRDNAKNSLFLQMKSLRAEDTAVYYCAGLWWGDLENWFDPWGQGTLVTVSS
VL: QSVLTQPPSVSGAPGQRVTISCTGSSSNLGTGFDVHWYRQLPGTAPQLLIYGSTNRPSGVPDRFSGSKYGTSASLAITGLQAEDEADYYCQSYDSNLRAYVFGTVTKVTVL
B4: ADI-41319 (antibody, V domains shown)
VH: QVQLQESGPGLVKPSQTLSLTCTVSGGSISSGDYYWSWIRQPPGKGLEWIGYIFYSGTTYYNPSLKSRVTISLDTSQNQFSLKLSSVTAADTAVYYCARDGDEVDYVWGTRRYLDSWGRGTLVTVSS
VL: EIVLTQSPGTLSLSPGERATLSCRASQSVSSRYLAWYQQKPGQAPRLLIHGASSRATGIPDRFSGSGSGTDFTLTISRLEPEDFAVYYCLQYGSLPKTFGQGTKVEIK
B5: ADI-41342 (antibody, V domains shown)
VH: QVQLVQSGAEVKKPGSSVKVSCKASGGTLTSYGVSWVRQAPGQGLEWMGGIIPIFGTVDYAQKFQGRVTITADEPTSTAYMELSSLTSDDTAVYYCARDPWVSGPVEFYYYFDVWGRGTLVTVSS
VL: DIVLTESPATLSLSPGERATLSCRASQSINNRYLAWYQQKPGQAPRLLIFGASSRATGIPDRFSGSGSGTDFTLTISRLEPEDFAVYYCQQYGSTPPTFGQGTKVEIK
B6: ADI-41314 (antibody, V domains shown)
VH: QVQLVQSGAEVKKPGSSVKVSCKAFGGIFSSYAISWVRQAPGQGLEWMGGIIPIFGTTKYAQKFQGRVTITADKSTSTVYMEVSSLRFEESAVYFCARAYCSGGTWYGGADYWGQGTLVTVSS
VL: QSVLTQPPSVSVSPGQTARITCSGDVLPKQYAYWYQQKPGQAPLLVMYKDTERPSGIPERFSGSSSVTAVTLTISGVQAEDEADYYCQSADSTQELFGGGTKLTVL
B7: ADI-41323 (antibody, V domains shown)
VH: EVQLLESGGGVVRPGGSLRLSCAASGFTFDDYAMGWVRQAPGKGLEWVSGITWNAGSTAYAGSVKGRFTISRDNAKNSLFLQMNSLRAEDTAFYLCARHVDSSGPVARHFDYWGQGTLVTVSS
VL: NFMLTQPHSVSESPGKTVTISCTRSSGSIARNYVQWYQQRPGSAPTIVIYEDNQRPSGVPDRFSGSIDSSSNSASLTISGLKTEDEADYYCQSYDPSNVVFGGGTKLTVL
B8: ADI-41346 (antibody, V domains shown)
VH: QVQLVQSGPEVKKPGESLKISCTLSASGLTTYWIGWVRQMPAKGLEWMGIIFPGDSDTRYSPSFQGQVTISADKSTNTAYLQWSGLKASDTAIYYCATLQTPVTGLDQWGQGTLVTVSS
VL: NFMLTQPHSVSESPGKTVTISCTRSSGNIARSYVQWYQQRPGSAPTTVIHEDDQRPSGVPDRFSGSIDTSSNSASLTISGLKTEDEADYYCQSYDPSNYVFGTGTKVTVL
B9: ADI-41345 (antibody, V domains shown)
VH: EVQLVQSGAEVRKPGESLKISCKGSGYNFASYWIAWVRQMPGKGLEWMGIIFPGDSDTRYSPSFQGQVTISVDKSISTAYLQWSSLKASDTAIYYCATSKYTFGYLDWGQGTLVTVSS
VL: NFMLTQPHSVSESPGKTVTISCTRSSGSIASNYVQWYQQRPGSAPTTVIYEDNQRPSGVPDRFSGSIDSSSNSASLTISGLKTEDEADYYCQSYDTSNQVFGTGTKVTVL
B10: ADI-41315 (antibody, V domains shown)
VH: EVQLLESGPGLVKPSETLSLTCAVSGGSISNYYWSWIRQPPGKGLEWIAYISYSGTTNYNPSLESRVTISVDTSKNQFSLKLNSVTAADTAVYYCARHEFLVLPDVWGQGTLVTVSS
VL: ETTLTQSPGTLSLSPGERATLSCRASQSVSSTFLAWYQQKPGQAPRLLIYAASSRATGIPDRFSGSGSGTDFTLIISRLEPEDFAVYYCQQYRSSPFSFGPGTKVEIK
B11: ADI-41324 (antibody, V domains shown)
VH: EVQLVESGGGLVQPGGSLRLSCAASGFTVSNNYMRWVRQAPGKGLEWVSVIYSSGSTDYADSVKGRFTISRDNSKNTLYLQMNSLRAEDTAVYYCARERTLFYYDSSGFFDYWGQGTLVTVSS
VL: ETTLTQSPGTLSLSPGERATLSCRASQSVDSSYLAWYQQKPGQAPRLLIYGASNRATGIPDRFSGSGSGTDFTLTISRLEPEDFAVYYCQQYGRSLTFGGGTKLEIK
B12: ADI-41322 (antibody, V domains shown)
VH: QVQLVQSGAEVKKPGSSVRVSCKASGGSFSSYATSWVRQAPGQGLEWMGGIIPMYDAVNYAQKFQGRVTITADESTTTAYMELSSLRSEDTAVYYCARSSGYTGTNFFDYWGQGTLVTVSS
VL: DIQMTQSPSSVSASVGDRVTITCRASQDISSWLAWYQQKPGKAPKLLIYTASSLQSGVPSRFSGSGSGTDFTLTISRLQPEDFATYYCQQANSFPRVTFGGGTKVEIK
B13: ADI-41318 (antibody, V domains shown)
VH: EVQLLESGAEVKKPGSSVRVSCKAFGGTFSSYAFSWVRQAPGQGLEWMGGITPMFGTENYAPNFQGRVTITADKLTTTVYMELSRLRSEDSAVYYCAREGGRLGTTMGAFDMWGQGTMVTVSS
VL: DIRLTQSPSSLSASVGDRVTITCRASHGISSALAWYQQRPGRVPQVLIFHASTLESGVPSRFSGSGSGTDFTLTISSLQPEDFATYYCQQFNSYPYTFGQGTKVEIK
B14: ADI-41311 (antibody, V domains shown)
VH: QVTLKQSGPALVKPTQTLTLTCTFSGFSLSTKRMGVSWIRQPPGKALEWLARIDWDDDKYYSTSLRTRLTISKDTSKNQVVLTMTDMDPVDTATYYCARIQPYTSGGYYSYYFDYWGQGTLVTVSS
VL: DIQVTQSPSSLSASIGDRVTITCRASQTIASYLNWYQQKPGKAPKLLIYIASSLQSGVPSRFSGSGSGTDFTLTISTLQPEDFATYYCQQSYGTPWTFGQGTKVEIK
B15: ADI-41310 (antibody, V domains shown)
VH: QVQLVQSGVEVKKPGESLKISCRGSGYSFYNYWIAWVRQKPGKGLEYMGTIYLDDSDTIYSPSFQGEVTISADKSINTAYLQWNSLKASDTANYYCARQMDFYFDVWGRGTLVTVSS
VL: SYELTQPPSVSVSPGQTARITCSGDPLPRESAYWYQQKPGQAPVVVIFNDIERPLGIPGRFSGSRSGATATLTINGAQAEDEADYYCQSADSRKTFVFGAGTKLTVL
B16: ADI-41320 (antibody, V domains shown)
VH: QVQLVQSGVEVKKPGESLKISCRGFGYSAYNYWIAWVRQKPGKGLEYMGTIYLDDSDTIYSPSFQGEVTISADRSINTAYLQWNSLKASDTANYYCARQMDFYFDVWGRGTLVTVSS
VL: QSVLTQPPSVSVSPGQTARITCSGDPLPRESAYWYQQKPGQAPVVVIFNDIERPLGIPARFSGSRSGTTVTLTISGAQAEDEADYYCQSADSRKTFVFGPGTKLTVL
B17: ADI-41343 (antibody, V domains shown)
VH: EVQLVESGGGLVKPGGSLRLSCAASGFTFSSYYMNWVRQAPGKGLEWVSSISGGSSYISYADSVKGRFTISRDNAKNSLYLQMNSLRAEDTAVYYCARVDTPMVRGYYFDYWGQGTLVTVSS
VL: QSVLTQPPSVSGAPGRRVTISCTGSSSNIGAGYDVHWYQQLPGTAPKLLIFANSNRPSGVPDRFSGSKSGTSASLAITGLQAEDEADYYCQSYDSSLSGSVFGGGTKVTVL
B18: ADI-41344 (antibody, V domains shown)
VH: EVQLVESGGGLVKPGGSLRLSCAASGSSFSSYYMNWVRQAPGKGLEWVSSISSSSTYIDYADSVKGRFTISRDNAKNSLFLQMNSLRAEDTAVYYCARVSSPMIRGYYLDYWGQGTLVTVSS
VL: QPVLTQPPSVSGAPGQRVTISCTGSSSNIGAGYDVHWYQQLPGTAPKLVIHGNSNRPSGVPDRFSGSKSGTSASLAITGLQGEDEADYYCQSYDSSLSGSVFGGGTKLTVL
B19: ADI-41313 (antibody, V domains shown)
VH: EVQLVESGAEVKKPGASVKVSCKASGYTFNNYDISWVRQAPGQGLEWMGWISTYNGNTNYAQKFQGRATMTTDTSTTTAYMELRSLRSDDSAIYYCARVYCGGDCHNPFFLYFDLWGRGTLVTVSS
VL: SYVLTQPLSVSVALGQTARITCGGNNIGSKSVHWYQQKPGQAPLLVIYRDNNRPSGIPERFSGSTSGNTATLTISRAQAGDEADYSCQVWDNSDWVFGGGTKLTVL
B20: ADI-41340 (antibody, V domains shown)
VH: QVQLVQSGAEVKTPGSSVKVSCKASGGTFRSYPITWVRQAPGQGLEWMGTVIPVFDTVNYAPKFQGRVSITADESTNTAYMELSSLRSDDSAVYYCARDLGWLRPMTTVTSPHFDYWGQGTLVTVSS
VL: QSVLTQPASVSGSPGQSITISCTGTSSDVGGYDFVSWYQQHPGKAPKLMISEVTDRPSGVSNRFSGSKSGNTASLTISGLQAEDEADYYCTSYTSSRTYVFGTGTKLTVL
B21: ADI-41341 (antibody, V domains shown)
VH: QVQLVQSGAEVKKPGSSVKVSCKASGGTFSSYATHWVRQAPGQGLEWMGGIIPIFGRATYAQKFQGRVTISADESTSTAYMELSSLRSEDTAVYYCARGRDDRSGDHIAFLYHYGMDVWGQGSTVTVSS
VL: QSVLTQPPSVSAAPGQKVSISCSGSSSNIGINHASWYQHLPGTAPKLLIYDNNKRPSGIPDRFSGSKSGTSATLGISGLQTGDEAAYYCGTWDTGLSAVVFGGGTKLTVL
B22: ADI-41347 (antibody, V domains shown)
VH: EVQLVESGPGLVKPSGTLSLTCAVSGGSVSSDNWWSWVRQPPGKGIEWIGEIYPSGGTNYNPSLNSRVTISVDKSKNQFSLKLNSVTAADTAIYYCARAPFDSSGYHSNSVWGQGTLVTVSS
VL: ETTLTQSPLSLPVTPGEPASISCRSSQSLLHSNGHNYLDWYVQKPGQSPQLLIYLSSNRASGVPDRFSGSGSGTDFTLRISRVEAEDVGVYYCMQPLQTPQTFGQGTKVEIK

These binders were tested against RSV F on RSV-A2 virus (Respiratory syncytial virus (RSV-A2)) (assay: cell-based or functional assay).

**Q.** With B1 as the binder, how does the “Neutralization IC50 (RSV subtype A)” value read?
**A.** The value was greater than 25 µg/mL.

**Q.** B2 was tested. Which “Neutralization IC50 (RSV subtype A)” value did it give?
**A.** Its value is greater than 25 µg/mL.

**Q.** How did the “Neutralization IC50 (RSV subtype A)” value turn out when B3 was run?
**A.** Its value is 4.66 µg/mL.

**Q.** For B4, which “Neutralization IC50 (RSV subtype A)” value is on record?
**A.** Its value is greater than 25 µg/mL.

**Q.** B5 was tested. Which “Neutralization IC50 (RSV subtype A)” value did it give?
**A.** Its value is greater than 25 µg/mL.

**Q.** With B6 as the binder, how does the “Neutralization IC50 (RSV subtype A)” value read?
**A.** Its value is greater than 25 µg/mL.

**Q.** Which “Neutralization IC50 (RSV subtype A)” value does the source give for B7 here?
**A.** Its value is greater than 25 µg/mL.

**Q.** How did the “Neutralization IC50 (RSV subtype A)” value turn out when B8 was run?
**A.** Its value is greater than 25 µg/mL.

**Q.** For B9, which “Neutralization IC50 (RSV subtype A)” value is on record?
**A.** The value was greater than 25 µg/mL.

**Q.** Which “Neutralization IC50 (RSV subtype A)” value does the source give for B10 here?
**A.** Its value is greater than 25 µg/mL.

**Q.** For B11, which “Neutralization IC50 (RSV subtype A)” value is on record?
**A.** The value was greater than 25 µg/mL.

**Q.** How did the “Neutralization IC50 (RSV subtype A)” value turn out when B12 was run?
**A.** Its value is greater than 25 µg/mL.

**Q.** B13 was tested. Which “Neutralization IC50 (RSV subtype A)” value did it give?
**A.** The value was greater than 25 µg/mL.

**Q.** Which “Neutralization IC50 (RSV subtype A)” value does the source give for B14 here?
**A.** Its value is greater than 25 µg/mL.

**Q.** For B15, which “Neutralization IC50 (RSV subtype A)” value is on record?
**A.** The value was greater than 25 µg/mL.

**Q.** Which “Neutralization IC50 (RSV subtype A)” value does the source give for B16 here?
**A.** The value was greater than 25 µg/mL.

**Q.** For B17, which “Neutralization IC50 (RSV subtype A)” value is on record?
**A.** The value was 0.177 µg/mL.

**Q.** With B18 as the binder, how does the “Neutralization IC50 (RSV subtype A)” value read?
**A.** The value was 0.0637 µg/mL.

**Q.** With B19 as the binder, how does the “Neutralization IC50 (RSV subtype A)” value read?
**A.** The value was greater than 25 µg/mL.

**Q.** With B20 as the binder, how does the “Neutralization IC50 (RSV subtype A)” value read?
**A.** The value was greater than 25 µg/mL.

**Q.** With B21 as the binder, how does the “Neutralization IC50 (RSV subtype A)” value read?
**A.** The value was greater than 25 µg/mL.

**Q.** For B22, which “Neutralization IC50 (RSV subtype A)” value is on record?
**A.** Its value is greater than 25 µg/mL.

Reference: US20260258115A1 (MAPP BIOPHARMACEUTICAL, published 2026)
